± gives the uncertainty stated by the source.
B1: POU domain, class 3, transcription factor 3, residues 320 to 388; numbered along this chain, P20264 (parent)
chain: DDLEQFAKQFKQRRIKLGFTQADVGLALGTLYGNVFSQTTICRFEALQLSFKNMCKLKPLLNKWLEEAD

Variants of: B1
Experiment: abundance fitness (aPCA) (normalised: wild type 0, dead -1); higher = more abundant; growth selection in yeast, the domain comes from the species named
Conditions: Homo sapiens

Row | Variant | abundance fitness
1 | DDLEQFAKQFKQRRIKLGFTQADVGCALGTLYGNVFSQTTICRFEALQLSFKNMCKLKPLLNKWLEEAD [L26C] | -0.045 ± 0.21
2 | DDLEQFAKQFKQRRIKLGFTQADVGKALGTLYGNVFSQTTICRFEALQLSFKNMCKLKPLLNKWLEEAD [L26K] | -0.076 ± 0.1
3 | DDLEQFAKQFKQRRIKLGFTQADVGMALGTLYGNVFSQTTICRFEALQLSFKNMCKLKPLLNKWLEEAD [L26M] | 0.058 ± 0.086
4 | DDLEQFAKQFKQRRIKLGFTQADVGWALGTLYGNVFSQTTICRFEALQLSFKNMCKLKPLLNKWLEEAD [L26W] | -0.24 ± 0.07
5 | DDLEQFAKQFKQRRIKLGFTQADVGTALGTLYGNVFSQTTICRFEALQLSFKNMCKLKPLLNKWLEEAD [L26T] | -0.515 ± 0.17
6 | DDLEQFAKQFKQRRIKLGFTQADVGRALGTLYGNVFSQTTICRFEALQLSFKNMCKLKPLLNKWLEEAD [L26R] | 0.128 ± 0.058
7 | DDLEQFAKQFKQRRIKLGFTQADVGYALGTLYGNVFSQTTICRFEALQLSFKNMCKLKPLLNKWLEEAD [L26Y] | 0.035 ± 0.23
8 | DDLEQFAKQFKQRRIKLGFTQADVGDALGTLYGNVFSQTTICRFEALQLSFKNMCKLKPLLNKWLEEAD [L26D] | -0.016 ± 0.15
9 | DDLEQFAKQFKQRRIKLGFTQADVGVALGTLYGNVFSQTTICRFEALQLSFKNMCKLKPLLNKWLEEAD [L26V] | -0.147 ± 0.077
10 | DDLEQFAKQFKQRRIKLGFTQADVGEALGTLYGNVFSQTTICRFEALQLSFKNMCKLKPLLNKWLEEAD [L26E] | 0.133 ± 0.077
11 | DDLEQFAKQFKQRRIKLGFTQADVGSALGTLYGNVFSQTTICRFEALQLSFKNMCKLKPLLNKWLEEAD [L26S] | 0.071 ± 0.13
12 | DDLEQFAKQFKQRRIKLGFTQADVGQALGTLYGNVFSQTTICRFEALQLSFKNMCKLKPLLNKWLEEAD [L26Q] | 0.017 ± 0.14
13 | DDLEQFAKQFKQRRIKLGFTQADVGAALGTLYGNVFSQTTICRFEALQLSFKNMCKLKPLLNKWLEEAD [L26A] | 0.005 ± 0.079
14 | DDLEQFAKQFKQRRIKLGFTQADVGGALGTLYGNVFSQTTICRFEALQLSFKNMCKLKPLLNKWLEEAD [L26G] | -0.227 ± 0.065
15 | DDLEQFAKQFKQRRIKLGFTQADVTLALGTLYGNVFSQTTICRFEALQLSFKNMCKLKPLLNKWLEEAD [G25T] | -0.36 ± 0.14
16 | DDLEQFAKQFKQRRIKLGFTQADVMLALGTLYGNVFSQTTICRFEALQLSFKNMCKLKPLLNKWLEEAD [G25M] | -0.754 ± 0.21
17 | DDLEQFAKQFKQRRIKLGFTQADVCLALGTLYGNVFSQTTICRFEALQLSFKNMCKLKPLLNKWLEEAD [G25C] | 0.103 ± 0.26
18 | DDLEQFAKQFKQRRIKLGFTQADVQLALGTLYGNVFSQTTICRFEALQLSFKNMCKLKPLLNKWLEEAD [G25Q] | -0.682 ± 0.14
19 | DDLEQFAKQFKQRRIKLGFTQADVSLALGTLYGNVFSQTTICRFEALQLSFKNMCKLKPLLNKWLEEAD [G25S] | -0.069 ± 0.099
20 | DDLEQFAKQFKQRRIKLGFTQADVALALGTLYGNVFSQTTICRFEALQLSFKNMCKLKPLLNKWLEEAD [G25A] | 0.161 ± 0.12

Row | Variant | abundance fitness
21 | DDLEQFAKQFKQRRIKLGFTQADVNLALGTLYGNVFSQTTICRFEALQLSFKNMCKLKPLLNKWLEEAD [G25N] | -0.753 ± 0.45
22 | DDLEQFAKQFKQRRIKLGFTQADVVLALGTLYGNVFSQTTICRFEALQLSFKNMCKLKPLLNKWLEEAD [G25V] | -0.815 ± 0.19
23 | DDLEQFAKQFKQRRIKLGFTQADVRLALGTLYGNVFSQTTICRFEALQLSFKNMCKLKPLLNKWLEEAD [G25R] | -0.3 ± 0.068
24 | DDLEQFAKQFKQRRIKLGFTQADVGLHLGTLYGNVFSQTTICRFEALQLSFKNMCKLKPLLNKWLEEAD [A27H] | -0.022 ± 0.15
25 | DDLEQFAKQFKQRRIKLGFTQADVGLCLGTLYGNVFSQTTICRFEALQLSFKNMCKLKPLLNKWLEEAD [A27C] | 0.232 ± 0.24
26 | DDLEQFAKQFKQRRIKLGFTQADVGLQLGTLYGNVFSQTTICRFEALQLSFKNMCKLKPLLNKWLEEAD [A27Q] | 0.228 ± 0.12
27 | DDLEQFAKQFKQRRIKLGFTQADVGLMLGTLYGNVFSQTTICRFEALQLSFKNMCKLKPLLNKWLEEAD [A27M] | -0.427 ± 0.18
28 | DDLEQFAKQFKQRRIKLGFTQADVGLELGTLYGNVFSQTTICRFEALQLSFKNMCKLKPLLNKWLEEAD [A27E] | -0.375 ± 0.11
29 | DDLEQFAKQFKQRRIKLGFTQADVGLRLGTLYGNVFSQTTICRFEALQLSFKNMCKLKPLLNKWLEEAD [A27R] | 0.031 ± 0.056
30 | DDLEQFAKQFKQRRIKLGFTQADVGLGLGTLYGNVFSQTTICRFEALQLSFKNMCKLKPLLNKWLEEAD [A27G] | -0.262 ± 0.09
31 | DDLEQFAKQFKQRRIKLGFTQADVGLSLGTLYGNVFSQTTICRFEALQLSFKNMCKLKPLLNKWLEEAD [A27S] | -0.239 ± 0.083
32 | DDLEQFAKQFKQRRIKLGFTQADVGLILGTLYGNVFSQTTICRFEALQLSFKNMCKLKPLLNKWLEEAD [A27I] | -0.711 ± 0.22
33 | DDLEQFAKQFKQRRIKLGFTQADVGLLLGTLYGNVFSQTTICRFEALQLSFKNMCKLKPLLNKWLEEAD [A27L] | -0.456 ± 0.098
34 | DDLEQFAKQFKQRRIKLGFTQADVGLWLGTLYGNVFSQTTICRFEALQLSFKNMCKLKPLLNKWLEEAD [A27W] | -0.101 ± 0.08
35 | DDLEQFAKQFKQRRIKLGFTQADVGLPLGTLYGNVFSQTTICRFEALQLSFKNMCKLKPLLNKWLEEAD [A27P] | -0.8 ± 0.2
36 | DDLEQFAKQFKQRRIKLGFTQADVGLVLGTLYGNVFSQTTICRFEALQLSFKNMCKLKPLLNKWLEEAD [A27V] | -0.509 ± 0.079
37 | DDLEQFAKQFKQRRIKLGFTQADVGLYLGTLYGNVFSQTTICRFEALQLSFKNMCKLKPLLNKWLEEAD [A27Y] | -0.502 ± 0.17
38 | DDLEQFAKQFKQRRIKLGFTQADVGLDLGTLYGNVFSQTTICRFEALQLSFKNMCKLKPLLNKWLEEAD [A27D] | -0.613 ± 0.21
39 | DDLEQFAKQFKQRRIKLGFTQADVGLKLGTLYGNVFSQTTICRFEALQLSFKNMCKLKPLLNKWLEEAD [A27K] | 0.021 ± 0.11
